Two proteins from US20180371433A1 (UNIVERSITY OF FLORIDA RESEARCH FOUNDATION, published 2018) can be followed below.

Data set [1] concerns the molecule itself. Description: size exclusion chromatography (Superdex 200); hexamers of ~134 kDa and trimers of ~64 kDa. As for the experimental part: HvPPA (HVO_0729, UniProt: D4GT97) was expressed with an N-terminal poly-histidine tag (His₆) in Hfx. volcanii H26-pJAM2920 (Table 1). Hfx. volcanii cells were grown to stationary phase (OD₆₀₀ of 3-3.5) (4×1-liter cultures in 2.8-liter Fernbach flasks) and harvested by centrifugation (10-15 min at 9,200× g and 25° C.). Cell pellets were resuspended at 5 ml per g wet weight cells in Tris-salt buffer (20 mM Tris-HCl, pH 7.5, 2 M NaCl and 2.5 mM MgCl₂) supplemented with 40 mM imidazole and 1 mini-tablet protease inhibitor cocktail (Roche product no. 05892791001) per 10 ml buffer. Cells were lysed by passing through a French Press (three times at 20,000 psi). Whole cell lysate was clarified by centrifugation (twice for 30 min at 9,200× g and 4° C.) and sequential filtration using 0.8 μm and 0.2 μm cellulose acetate filters (Thermo Scientific Nalgene). Clarified cell lysate was applied to a HisTrap HP column (5 ml, 17-5248-01, GE Healthcare) pre-equilibrated and washed in 100 ml of Tris-salt buffer with 40 mM imidazole. Fractions containing HvPPA were eluted in Tris-salt buffer with a 25 ml gradient from 40 mM to 500 mM imidazole. […] Purity of HvPPA was assessed by Coomassie Blue stained SDS-PAGE gels and PPi activity assay. […]
On the technique in general: In gel filtration, larger molecules generally elute earlier.

In data set [2] the target is T1, ubiquitin-like SAMP1, D4GUF6.
T1 chain: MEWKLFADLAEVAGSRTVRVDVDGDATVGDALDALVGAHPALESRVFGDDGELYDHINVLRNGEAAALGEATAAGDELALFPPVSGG

Data set [3] addresses T2, SAMP1 with deletion of the C-terminal diglycine residues (ΔGG), D4GUF6.
T2 chain: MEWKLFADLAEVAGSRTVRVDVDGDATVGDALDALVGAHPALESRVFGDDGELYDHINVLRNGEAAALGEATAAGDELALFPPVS

B1: HvPPA with an N-terminal poly-histidine tag (His6-HvPPA) linked with a thrombin-cleavage site (enzyme)
chain: MVNLWEDMETGPNAPDEIYAVVECLKGERNKYEYDKDIPGVVLDRVLHSNVHYPSDYGFIPQTYYDDEDPFDVLVLVEDQTFPGCVIEARPVALMKMDDDGEQDDKVIAVPVEDPRYDHIEDLDDIPQQTLDEIDEFFATYKNLEAGKEVETLGWEDKQAAKDAIEHAMDLYEENFA
notes: Expressed in Hfx. volcanii H26-pJAM2920; Purified by Ni2+ IMAC and SEC as homo-hexamers (~134 kDa) and homo-trimers (~64 kDa); also called HVO_0729; Haloferax volcanii inorganic pyrophosphatase; not shown: N-terminal His6 tag and thrombin-cleavage site from vector pJAM503
Consider B1, for which the binding result in data set [1] is given as “binds”.

B2: UbaA of Hfx. volcanii (protein)
chain: MTLSLDATQLDRYSRHIIMDEVGPEGQGRLLSSRVVVVGAGGLGAPAIQYLAAVGVGELVVVDDDVVERSNLQRQVVHCDDDVGTPKAESAAAFVRGLNPDVSVEPVEARVDKSNVHEVVAGSDVVVDASDNFPTRYLLNDVCRFEGIPLVHGAIYKFEGQATTLVPDGPCYRCLFPEAPEPGTVPDCATTGVLGVLPGTVGCIQATEAMKLLLDEGEALDGRLLFYDAMDMTFETVPYRTNPDCPVCGEGGVDSIEDIDYVESCAISLD
With B2, the “Pi detected by colorimetric (malachite green) assay in the HvPPA-coupled adenylation assay” value was “Significant levels of Pi were detected when UbaA and HvPPA were coupled with ATP and SAMP1 in the reaction” in data set [2]; “Deletion of the C-terminal diglycine residues of SAMP1 (ΔGG) were found to significantly reduce the level of Pi detected by this assay” in data set [3].
